In assay [1] the target is T1, human TL1A, soluble, CHO-expressed, residues 72-251 of SEQ ID NO:244 with N-terminal His6-tag (human, UniProt O95150 72-251).
T1 construct: also called hTL1A; hTL1A (CHO)
T1 sequence: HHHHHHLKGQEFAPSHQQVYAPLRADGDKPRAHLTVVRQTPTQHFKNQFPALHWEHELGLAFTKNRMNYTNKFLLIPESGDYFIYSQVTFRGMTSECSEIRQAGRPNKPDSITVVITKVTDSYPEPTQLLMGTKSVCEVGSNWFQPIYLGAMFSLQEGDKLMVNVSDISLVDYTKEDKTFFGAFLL
Put plainly: SPR 25C, mAb captured; kd set at 1e-6 1/s. On the procedure: Measurements were conducted on a T100 BIACORE™ instrument. […] Kinetic association (kₐ) and dissociation (kd) rate constants were determined by fitting the data to a 1:1 binding model using BIAevaluation 4.1 curve fitting software (BIAcore Life Sciences). Molar concentrations of TL1A/Fhm used in the data fitting assumed a monomeric state for TL1A in solution. Binding dissociation equilibrium constants (KD) and dissociative half-lives (t_{1/2}) were calculated from the kinetic rate constants as: KD (M)=kd/kₐ; and t_{1/2} (min)=[In2/(60*kd)].

Assay [2] has as its target T2, Fhm, hTL1A(Q167R), soluble, CHO-expressed, residues 72-251 of SEQ ID NO:246 (human, UniProt O95150 72-251).
T2 construct: also called Fhm (CHO); FHM (CHO)
T2 chain: T1 sequence with Q102R
Put plainly: ELISA, blocks FHM (150 pM) binding hDR3-Fc; blocking of FHM binding to hDR3. As to the method:
The ability of antibodies to block human TL1A binding to its cognate receptors, the DR3 and DcR3 receptors, was measured using a competition sandwich ELISA. In addition, blocking of a human TL1A variant FHM (human TL1A Q167R) and the cynomolgus monkey (Macaca fascicularis) TL1A (MfTL1A) protein binding to the human DR3 or DcR3 receptors was measured in the same manner. Constant amounts of biotinylated human TL1A or FHM (both expressed with a 6-His tag in CHO cells) or biotinylated MfTL1A (expressed in CHO cells) were separately titrated with varying amounts of antibodies. The antibody-protein complexes were incubated in solution (1 hr, 25° C.) and then transferred to microtiter plates coated with human DR3 (hDR3) or human DcR3 (hDcR3) expressed as human IgG1 Fc fusion proteins. After one hour at 25° C. the wells were washed, and bound human or monkey TL1A was detected with streptavidin conjugated with horseradish peroxidase (HRP). Wells were developed with a TMB solution to produce a colorimetric reaction and quenched with aqueous sulfuric acid before reading absorbance at 450 nm on a Perkin-Elmer Victor X5 plate reader. A sigmoidal dose-response curve was fit to the data using the Prism™ data analysis package. […] Both fully human anti-hTL1A mAbs and comparator antibodies, i.e., control mAb1 (an anti-hTL1A antibody with heavy and light chain variable domains having the amino acid sequences corresponding to SEQ ID NOS:21 and 27, respectively, of US 2009/0280116) and control mAb3 (an anti-hTL1A antibody with heavy and light chain variable domains having the amino acid sequences corresponding to SEQ ID NOS:57 and 48, respectively, of US 2009/0280116), were included in the study. NB: No binding under the conditions tested; NT: Not tested. Concentrations of biotinylated soluble ligands: (1) 150 pM; (2) 500 pM; (3) 10 pM; and (4) 50 pM.

Changes are numbered by the printed parent chain. Numbers in names are those of the source.

B1: H4H1750P (antibody, human IgG4 S228P, V domains shown)
VH: QVQLVESGGGVVQPGRSLRLSCVASGFTFSNYGMHWVRQAPGKGLEWVAVISYDGNNDLYSDSVKGRFTISRDNAKNALSLQMTSLRAEDTAVYYCARDSTMTPYYYHGIDVWGQGTTVTVSA
VL: DIQMTQSPSSLSASVGDRVTITCRASQDIRNDLGWYQQKPGKAPKRLIYAASSLQSGVPSRFSGSGSGTDFTLTISSLQPEDFATYYCLQHNSYPPTFGQGTKVEIK
In assay [1], B1 had a t1/2 of no less than 192 h.

B2: H4H1804N (antibody, human IgG4 S228P, V domains shown)
VH: QVQLHQWGAGLLKPSETLSLTCAVSGVSFSDYHWAWIRQSPGKGLEWIGDINHRGRTNYNPSLKSRVTISLDTSGNPFSLKLTSVTAADTAVYYCARDFPNWVFDSWGQGILVTVSS
VL: EIVLSQSPGTLSLSPGERATLSCRASQSVSSSFLAWYQQYPGQAPRLLIYGASRRATGIPDRFRGSGSGTDFTLTISRLEPEDFAVYYCQQYGSSPLTFGGGTKVENK
notes: human IgG4(S108P) form of H2M1804N
For the molecule B2, the IC50 in assay [2] worked out at 0.069 nM.
